Experimental data: the supplement of paper PMC7125110
± gives the standard error. Fewer inactive variants are shown than the library holds.

B1: glmS ribozyme (parent)
chain: AUAAAAGCGCCAGAACUACAGAAAUGUAGUUGACGAGGAGGAGGUUUAUCGAAUUUUCGGCGGAUGCCUCCAAA

What was measured:
Details in all cases: with glucosamine-6-phosphate
glucosamine-6-phosphate [1] = variants of: B1; assay: self-cleavage kobs at 40 uM GlcN6P; higher = faster cleavage; RNA array
Summary of the method: (§1)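 E. coli RNA polymerase transcribed barcoded ribozyme variants in situ on sequenced MiSeq chips, which were tracked via a hybridised Cy3 probe at 37 °C. Tiles were imaged over ~14 h after glucosamine-6-phosphate (40 μM to 10 mM) in HEPES/KCl/Mg(OAc)2 buffer was flowed in. Normalised per-tile medians were fit to one- or two-exponential decays for kobs, and kcat and KM came from weighted Michaelis–Menten fits.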

glucosamine-6-phosphate [2] = variants of: B1; assay: self-cleavage kobs at 640 uM GlcN6P; higher = faster cleavage; RNA array
Summary of the method: as §1

glucosamine-6-phosphate [3] = variants of: B1; assay: self-cleavage kobs at 2500 uM GlcN6P; higher = faster cleavage; RNA array
Summary of the method: as §1

glucosamine-6-phosphate [4] = variants of: B1; assay: self-cleavage kobs at 160 uM GlcN6P; higher = faster cleavage; RNA array
Summary of the method: as §1

glucosamine-6-phosphate [5] = variants of: B1; assay: self-cleavage kobs at 10000 uM GlcN6P; higher = faster cleavage; RNA array
Summary of the method: as §1

| Variant | self-cleavage kobs at 40 uM GlcN6P (glucosamine-6-phosphate [1]) [s⁻¹] | self-cleavage kobs at 640 uM GlcN6P (glucosamine-6-phosphate [2]) [s⁻¹] | self-cleavage kobs at 2500 uM GlcN6P (glucosamine-6-phosphate [3]) [s⁻¹] | self-cleavage kobs at 160 uM GlcN6P (glucosamine-6-phosphate [4]) [s⁻¹] | self-cleavage kobs at 10000 uM GlcN6P (glucosamine-6-phosphate [5]) [s⁻¹] |
| --- | --- | --- | --- | --- | --- |
| A12C G32A A48G | < 1e-05 | – | – | – | – |
| C10G G59C | < 1e-05 | < 1e-05 | – | – | – |
| C11A G37U A42U C68U | < 1e-05 | < 1e-05 | – | – | – |
| C11G G13A G41U U45G G66A | < 1e-05 | – | – | – | – |
| C10G G35C G40A U57G | < 1e-05 | – | < 1e-05 | – | – |
| C11U A12U A64U | < 1e-05 | – | – | – | – |
| C10G A15U A36U G38A A53G C68G C70U | 0.000148 ± 4.5e-05 | – | – | – | – |
| C10G A15G A64G | < 1e-05 | – | – | – | – |
| C10A G62C | < 1e-05 | < 1e-05 | – | < 1e-05 | – |
| C10U G32A G43A C71A | < 1e-05 | – | – | – | – |
| C11A U31A A39G U55C G66U | < 1e-05 | – | – | < 1e-05 | < 1e-05 |
| C10G G13A U47G | < 1e-05 | – | – | – | – |
| C10U U31C G32C U49A G51U G60C | < 1e-05 | – | – | – | – |
| C11U A42C | < 1e-05 | < 1e-05 | < 1e-05 | < 1e-05 | < 1e-05 |
| C10G G29A | < 1e-05 | < 1e-05 | – | – | < 1e-05 |
| C11A G29U C67G C68G | 3.88e-05 ± 1.7e-05 | – | – | – | – |
| C11U A12U G43A C61G | < 1e-05 | – | – | – | < 1e-05 |
| C10U G40C | < 1e-05 | – | < 1e-05 | < 1e-05 | < 1e-05 |
| C10U G40U | < 1e-05 | – | – | – | < 1e-05 |
| C11G U31G | < 1e-05 | < 1e-05 | – | – | – |
| A12C A14G | 0.00067 ± 0.00016 | 0.00653 ± 0.0012 | 0.0128 ± 0.0023 | 0.00156 ± 0.00021 | 0.0484 ± 0.011 |
| C10U C34A | < 1e-05 | < 1e-05 | – | < 1e-05 | < 1e-05 |
| C10U U46G | < 1e-05 | – | – | < 1e-05 | – |
| C10U G37U | < 1e-05 | < 1e-05 | – | – | < 1e-05 |
| C10G U49G G60C | < 1e-05 | < 1e-05 | – | – | – |
| C11U G29U C34U A53U U56A | < 1e-05 | – | < 1e-05 | – | – |
| C10G G63A | < 1e-05 | – | – | – | < 1e-05 |

| Variant | self-cleavage kobs at 40 uM GlcN6P (glucosamine-6-phosphate [1]) [s⁻¹] | self-cleavage kobs at 640 uM GlcN6P (glucosamine-6-phosphate [2]) [s⁻¹] | self-cleavage kobs at 2500 uM GlcN6P (glucosamine-6-phosphate [3]) [s⁻¹] | self-cleavage kobs at 160 uM GlcN6P (glucosamine-6-phosphate [4]) [s⁻¹] | self-cleavage kobs at 10000 uM GlcN6P (glucosamine-6-phosphate [5]) [s⁻¹] |
| --- | --- | --- | --- | --- | --- |
| A12C C34G G40U A52U C61U | < 1e-05 | – | – | – | < 1e-05 |
| C11A A36U G62C C71G | < 1e-05 | – | – | < 1e-05 | < 1e-05 |
| C10G C50U U54G U56G | < 1e-05 | – | – | – | < 1e-05 |
| C10U C50U U57C | < 1e-05 | – | – | – | – |
| C10U G43A C70G | < 1e-05 | – | – | – | – |
| C10A U31G A42U C50G U56A G60U C68G C71A | 4.77e-05 ± 2e-05 | 0.00298 ± 0.00084 | – | – | – |
| C10G A53U G59A C70G | < 1e-05 | – | – | – | < 1e-05 |
| C11A G44U U54C | < 1e-05 | – | < 1e-05 | – | – |
| C10U C11G | < 1e-05 | < 1e-05 | < 1e-05 | – | < 1e-05 |
| C10U A33C | < 1e-05 | < 1e-05 | < 1e-05 | < 1e-05 | – |
| C10U C11G C16A C50G | 9.19e-05 ± 2.5e-05 | 0.000376 ± 9.9e-05 | 0.000168 ± 3.4e-05 | – | 8e-05 ± 2.2e-05 |
| A12C A36G | < 1e-05 | < 1e-05 | < 1e-05 | < 1e-05 | < 1e-05 |
| C11U G59C C71G | < 1e-05 | – | – | – | – |
| C11U G51U | < 1e-05 | < 1e-05 | < 1e-05 | < 1e-05 | < 1e-05 |
| C11U G51A | < 1e-05 | – | < 1e-05 | – | – |
| C11A C50G | 5.74e-05 ± 1.4e-05 | 0.000195 ± 4e-05 | 9.24e-05 ± 1.4e-05 | 0.000276 ± 7.2e-05 | 8.61e-05 ± 1.6e-05 |
| C10G U47C U54C | < 1e-05 | – | < 1e-05 | – | – |
| C10A G38U G59A G60A G62A A64U G66C C68G | 0.000187 ± 6.6e-05 | – | – | – | – |
| C11G U31A U49G | < 1e-05 | – | – | – | – |
| C10U A64C | < 1e-05 | < 1e-05 | < 1e-05 | – | – |
| C10U A64U | < 1e-05 | < 1e-05 | < 1e-05 | < 1e-05 | < 1e-05 |
| C11A C61U C70U | < 1e-05 | – | – | – | < 1e-05 |
| C10G U31C G35U | < 1e-05 | – | – | – | < 1e-05 |
| C10G U56G C68A | < 1e-05 | – | – | – | – |
| C11U U31A G38U U49A U54G | < 1e-05 | – | – | – | – |
| A12C A53G C68U | 6.52e-05 ± 1.6e-05 | – | – | – | – |
| C11G G13A G32U | < 1e-05 | – | – | – | – |
